Experimental data: IntAct's records for PubMed 31515488

Columns and labels:
inca1_human INCA1 = inca1_human INCA1 (UniProt Q0VD86)
itf2_human TCF4 = itf2_human TCF4 (UniProt P15884)
cep76_human CEP76 = cep76_human CEP76 (UniProt Q8TAP6)
hbaz_human HBZ = hbaz_human HBZ (UniProt P02008)
klhl2_human KLHL2 = klhl2_human KLHL2 (UniProt O95198)
neca2_human NECAB2 = target: T1, neca2_human NECAB2 (UniProt Q7Z6G3)
T1 sequence: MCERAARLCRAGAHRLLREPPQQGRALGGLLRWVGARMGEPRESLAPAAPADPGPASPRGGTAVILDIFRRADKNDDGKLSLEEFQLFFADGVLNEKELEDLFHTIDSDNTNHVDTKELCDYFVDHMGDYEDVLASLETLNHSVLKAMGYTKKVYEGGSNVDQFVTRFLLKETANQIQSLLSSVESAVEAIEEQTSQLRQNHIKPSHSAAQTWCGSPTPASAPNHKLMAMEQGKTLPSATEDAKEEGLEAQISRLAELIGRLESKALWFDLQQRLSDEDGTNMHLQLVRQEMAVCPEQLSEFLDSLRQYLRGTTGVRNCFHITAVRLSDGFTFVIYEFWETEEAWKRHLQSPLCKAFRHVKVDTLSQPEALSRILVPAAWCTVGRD

magd1_human MAGED1 = target: T2, magd1_human MAGED1 (UniProt Q9Y5V3)
T2 sequence: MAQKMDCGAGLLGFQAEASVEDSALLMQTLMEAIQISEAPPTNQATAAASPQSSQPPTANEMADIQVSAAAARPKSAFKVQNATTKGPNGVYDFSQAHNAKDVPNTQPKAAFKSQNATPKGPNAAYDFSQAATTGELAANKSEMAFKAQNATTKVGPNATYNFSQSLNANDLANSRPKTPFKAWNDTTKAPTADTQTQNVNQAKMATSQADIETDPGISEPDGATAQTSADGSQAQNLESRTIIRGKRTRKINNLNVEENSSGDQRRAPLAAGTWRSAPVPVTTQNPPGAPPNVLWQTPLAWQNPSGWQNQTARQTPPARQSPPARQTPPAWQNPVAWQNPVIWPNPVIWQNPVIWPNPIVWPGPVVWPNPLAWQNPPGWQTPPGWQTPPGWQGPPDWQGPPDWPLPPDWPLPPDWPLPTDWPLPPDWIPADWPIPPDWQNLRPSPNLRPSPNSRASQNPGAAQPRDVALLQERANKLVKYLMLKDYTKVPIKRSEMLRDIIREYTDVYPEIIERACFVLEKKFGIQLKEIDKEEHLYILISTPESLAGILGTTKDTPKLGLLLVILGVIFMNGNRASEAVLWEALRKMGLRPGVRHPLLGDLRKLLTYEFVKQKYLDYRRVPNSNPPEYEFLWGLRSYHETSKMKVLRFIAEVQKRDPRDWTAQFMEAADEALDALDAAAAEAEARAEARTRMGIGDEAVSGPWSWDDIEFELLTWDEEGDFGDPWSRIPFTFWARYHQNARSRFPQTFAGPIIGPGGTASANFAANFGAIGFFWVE

nmna1_human NMNAT1 = nmna1_human NMNAT1 (UniProt Q9HAN9)
srtd3_human SERTAD3 = target: T3, srtd3_human SERTAD3 (UniProt Q9UJW9)
T3 sequence: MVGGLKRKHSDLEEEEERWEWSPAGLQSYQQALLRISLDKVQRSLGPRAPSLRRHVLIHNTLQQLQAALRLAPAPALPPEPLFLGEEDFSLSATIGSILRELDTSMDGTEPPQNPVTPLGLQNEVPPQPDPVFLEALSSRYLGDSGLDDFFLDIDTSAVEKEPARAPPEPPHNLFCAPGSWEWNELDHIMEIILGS

mlh1_human MLH1 = mlh1_human MLH1 (UniProt P40692)
vps29_human VPS29 = vps29_human VPS29 (UniProt Q9UBQ0)
tcl1a_human TCL1A = tcl1a_human TCL1A (UniProt P56279)

**Q.** “Calcium-binding protein 5 (Homo sapiens), Q9NP86 G73S” was tested. Which “effect of a mutation on the interaction” value (inca1_human INCA1) did it give?
**A.** with no effect

**Q.** What about the “effect of a mutation on the interaction” value (itf2_human TCF4) of the same substance?
**A.** with no effect

**Q.** What about the “effect of a mutation on the interaction” value (cep76_human CEP76) of the same substance?
**A.** with no effect

**Q.** “Hemoglobin subunit beta (Homo sapiens), P68871 H118Y” was tested. Which “effect of a mutation on the interaction” value (hbaz_human HBZ) did it give?
**A.** disrupting interaction strength

**Q.** How did the “effect of a mutation on the interaction” value (klhl2_human KLHL2) turn out when “Zinc finger protein 114 (Homo sapiens), Q8NC26 K404E” was run?
**A.** with no effect

**Q.** With “Importin subunit alpha-1 (Homo sapiens) (from UniProt P52292) P216S” as the substance, how does the “effect of a mutation on the interaction” value (neca2_human NECAB2) read?
**A.** with no effect

**Q.** What about the “effect of a mutation on the interaction” value (magd1_human MAGED1) of the same substance?
**A.** with no effect

**Q.** What about the “effect of a mutation on the interaction” value (nmna1_human NMNAT1) of the same substance?
**A.** with no effect

**Q.** What about the “effect of a mutation on the interaction” value (srtd3_human SERTAD3) of the same substance?
**A.** with no effect

**Q.** What about the “effect of a mutation on the interaction” value (mlh1_human MLH1) of the same substance?
**A.** with no effect

**Q.** “Hemoglobin subunit beta (Homo sapiens), P68871 E102Q” was tested. Which “effect of a mutation on the interaction” value (hbaz_human HBZ) did it give?
**A.** disrupting interaction strength

**Q.** For “Hemoglobin subunit beta (Homo sapiens), P68871 E7V”, which “effect of a mutation on the interaction” value (hbaz_human HBZ) is on record?
**A.** disrupting interaction strength

**Q.** Which “effect of a mutation on the interaction” value (hbaz_human HBZ) does the source give for “Hemoglobin subunit beta (Homo sapiens), P68871 E7K” here?
**A.** disrupting interaction strength

**Q.** With “Hemoglobin subunit beta (Homo sapiens), P68871 G57D” as the substance, how does the “effect of a mutation on the interaction” value (hbaz_human HBZ) read?
**A.** with no effect

**Q.** With “Hemoglobin subunit beta (Homo sapiens), P68871 L115P” as the substance, how does the “effect of a mutation on the interaction” value (hbaz_human HBZ) read?
**A.** disrupting interaction strength

**Q.** “Vacuolar protein sorting-associated protein 35 (Homo sapiens) (from UniProt Q96QK1) R524W” was tested. Which “effect of a mutation on the interaction” value (vps29_human VPS29) did it give?
**A.** with no effect

**Q.** With “Zinc finger protein 114 (Homo sapiens), Q8NC26 E19G” as the substance, how does the “effect of a mutation on the interaction” value (klhl2_human KLHL2) read?
**A.** with no effect

**Q.** Which “effect of a mutation on the interaction” value (klhl2_human KLHL2) does the source give for “Zinc finger protein 114 (Homo sapiens), Q8NC26 A229P” here?
**A.** with no effect

**Q.** For “"DNA (cytosine-5)-methyltransferase 3A" (Homo sapiens) (from UniProt Q9Y6K1) P904L”, which “effect of a mutation on the interaction” value (tcl1a_human TCL1A) is on record?
**A.** disrupting interaction strength

**Q.** Which “effect of a mutation on the interaction” value (hbaz_human HBZ) does the source give for “Hemoglobin subunit beta (Homo sapiens), P68871 F104L” here?
**A.** disrupting interaction strength

**Q.** For “Zinc finger protein 114 (Homo sapiens), Q8NC26 Q357P”, which “effect of a mutation on the interaction” value (klhl2_human KLHL2) is on record?
**A.** with no effect

**Q.** “"DNA (cytosine-5)-methyltransferase 3A" (Homo sapiens) (from UniProt Q9Y6K1) V372I” was tested. Which “effect of a mutation on the interaction” value (tcl1a_human TCL1A) did it give?
**A.** with no effect

**Q.** With “Hemoglobin subunit beta (Homo sapiens), P68871 V114E” as the substance, how does the “effect of a mutation on the interaction” value (hbaz_human HBZ) read?
**A.** disrupting interaction strength

**Q.** “Hemoglobin subunit beta (Homo sapiens), P68871 N103Y” was tested. Which “effect of a mutation on the interaction” value (hbaz_human HBZ) did it give?
**A.** with no effect

**Q.** What does the source list for “Importin subunit alpha-1 (Homo sapiens) (from UniProt P52292) V506D”?
**A.** effect of a mutation on the interaction (neca2_human NECAB2): with no effect; effect of a mutation on the interaction (magd1_human MAGED1): with no effect; effect of a mutation on the interaction (nmna1_human NMNAT1): with no effect; effect of a mutation on the interaction (srtd3_human SERTAD3): with no effect

**Q.** Which results are given for “Importin subunit alpha-1 (Homo sapiens) (from UniProt P52292) R117Q”?
**A.** effect of a mutation on the interaction (neca2_human NECAB2): with no effect; effect of a mutation on the interaction (magd1_human MAGED1): with no effect; effect of a mutation on the interaction (nmna1_human NMNAT1): with no effect; effect of a mutation on the interaction (srtd3_human SERTAD3): with no effect; effect of a mutation on the interaction (mlh1_human MLH1): with no effect

**Q.** Which “effect of a mutation on the interaction” value (inca1_human INCA1) does the source give for “Calcium-binding protein 5 (Homo sapiens), Q9NP86 T65R” here?
**A.** with no effect

**Q.** What about the “effect of a mutation on the interaction” value (itf2_human TCF4) of the same substance?
**A.** disrupting interaction strength

**Q.** And the “effect of a mutation on the interaction” value (cep76_human CEP76)?
**A.** with no effect
